Measurements from patent US9759725B2, “Treatment-induced damage to the tumor micro-environment promotes cancer therapy resistance through extracellular proteins” (Fred Hutchinson Cancer Research Center, priority 2012, dated 2017).
Entries after “also recorded” stand apart in the source; their conditions may differ.

B1: GDNF: glial cell line-derived neurotrophic factor, purified / human recombinant protein used to stimulate cells (protein)
chain: SPDKQMAVLPRRERNRQAAAANPENSRGKGRRGQRGKNRGCVLTAIHLNVTDLGLGYETKEELIFRYCSGSCDAAETTYDKILKNLSRNRRLVSDKVGQACCRPIAFDDDLSFLDDNLVYHILRKHSAKRCGCI

Columns and labels:
Type in all cases: cell-based, human
PSC27 fibroblasts = experiment: Induction of DDSP factors in PSC27 fibroblasts with mTOR inhibition before ionizing radiation; details: summary statement
Description: The effects of inhibiting mTOR signaling in the context of genotoxic stress was evaluated. PSC27 fibroblasts were treated with Rapamycin (RAPA) prior to ionizing radiation.

PSC27 stromal cells = experiment: SFK and Ras/Raf/Erk pathway activation in PSC27 stromal cells on GDNF stimulation
From the text: Stimulation of epithelial CaP cells with GDNF leads to the activation of the SFK and the Ras/Raf/Erk pathways (FIG. 25). To determine if the same pathways are involved in the pro-proliferative effect on the PSC27 stromal cells, PSC27 cells were stimulated with hrGDNF or conditioned medium from PSC27/iGDNF-V5 cells. […] Additional more downstream effector proteins potentially involved in these effects are also being examined.

epithelial CaP cells [1] = experiment: Proliferation of epithelial CaP cells on GDNF stimulation
Description: (§1) To study the effect GDNF has on tumor growth, we have used two experimental approaches have been used. 1) the effect of purified GDNF on cell proliferation of epithelial cells was analyzed and 2) GDNF over-expressing and secreting human prostate fibroblasts were generated which can also be used in co-culture and in vivo experiments. […] GDNF can act in the absence of RET via GFRA1 activating SFK pathways or through the activation of the RET/GFRA1 complex activating the Ras/Raf/Erk pathway. In our experiments we determined that both pathways were activated in GDNF sensitive cell lines (FIG. 23B). […] The number of epithelial cell lines are being expanded and analyzed after GDNF stimulation. GDNF-activated SFK and Erk pathways can lead to reduced sensitivity to pro-apoptotic treatments or decrease drug sensitivity.

epithelial CaP cells [2] = experiment: Src/SFK and Erk pathway activation in CaP cells on GDNF stimulation; details: GDNF responsive cells
Description: as §1

Molecule | suppression of key DDSP proteins including Wnt16B (PSC27 fibroblasts) | Ras/Raf/Erk and SFK pathways in stromal cells (PSC27 stromal cells) | proliferation of Ret and GFRA1 negative cells (epithelial CaP cells [1]; after 3 or 5 days) | GDNF concentration of maximum stimulation of proliferation (epithelial CaP cells [1]; in the culture medium) | proliferation of cells expressing GDNF receptors Ret and/or GFRA1 (epithelial CaP cells [1]; increasing concentrations of GDNF) | Src (SFK) and Erk (Ras/Raf/Erk) pathways (epithelial CaP cells [2])
CO[C@H]1C[C@@H]2CC[C@@H](C)[C@@](O)(O2)C(=O)C(=O)N2CCCC[C@H]2C(=O)O[C@H]([C@H](C)C[C@@H]2CC[C@@H](OCCO)[C@H](OC)C2)CC(=O)[C@H](C)/C=C(\C)[C@@H](O)[C@@H](OC)C(=O)[C@H](C)C[C@H](C)/C=C/C=C/C=C/1C [RAD001] | effectively suppress | – | – | – | – | –
B1 | – | stimulated; also recorded: activation | did not show any increase in proliferation; also recorded: do not show any differences in proliferation | around 10 ng/ml | induced cell proliferation; also recorded: increased proliferation | activated; also recorded: activation
